# Source: the supplement of paper PMC12042874
# ± gives the uncertainty stated by the source.
# Assay: amyloid nucleation score (Sup35N fusion, yeast selection) (log enrichment); library NNK3; higher = more nucleation; inactive = no reads after selection
# How it was run: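 On medium lacking adenine and uracil, psi-negative yeast expressing peptides of 20 random codons fused to Sup35N were grown 7 days at 30°C after a 24-hour induction with 100 μM copper sulfate. Illumina sequencing of input and output plasmid inserts gave the reads, and sequences under 100 input reads were excluded. The nucleation score is the DiMSum log enrichment of output over input reads, centred on the mode score of non-aggregating sequences.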
row,Substance,amyloid nucleation score
1,CLMPLSDN,inactive
2,HKDLRYGWSSS,inactive
3,FQAYDSWNNWSSGFILKYSI,inactive
4,DTEVHQNRFRMFGACDRERK,inactive
5,IDGTCFARIFRCCIFYLR,inactive
6,NDASPLFSKGVLDFLSTKSL,inactive
7,VMCVGYGTSRYSWVAFGLDK,inactive
8,VSCYSRYRVVVHRGSVVISR,inactive
9,YWRFAMYQCIQFSRR,inactive
10,DNAVVEEYIIEVAKSFWTDG,inactive
11,SINDLGLWNVTVKFLCK,-0.037 ± 0.63
12,LMLEASCCSHAEFPHGVKMR,inactive
13,RRVSMPLSGDKSRSVEGVRR,inactive
14,VSKVKSNPPYITDEIVFCRR,inactive
15,YNMYQTHLSSYNYHQDATKN,1.7 ± 0.095
16,SVLCWFSVR,inactive
17,EVSIKAVDWRVSDVTVARTC,-0.228 ± 0.93
18,LNNWSKRVFLSPVPVWHSMS,-0.619 ± 1.9
19,MKRCTVFEPLPKRRLVMYLE,inactive
20,YSVNSTLLLYVSKYEFIPCV,0.169 ± 0.29
21,SSLLVRVRIYMGMMLLTIVR,inactive
22,ILLIINFG,2.21 ± 0.065
23,FASIYNFHDRIVSLRDQGR,inactive

row,Substance,amyloid nucleation score
1,TPMRHYKY,inactive
2,CLEPNILVLIMEFVY,inactive
3,MCLVFKTEIRGLKAFCMCSF,inactive
4,VRSPPVPLNCVE,inactive
5,KRSFGRVIRDIDEYRMVRVV,inactive
6,FWKLNFITIMCG,-0.34 ± 1
7,ISGKSHSFCCVTLFHLREGI,1.12 ± 0.17
8,YFLICIQVHKSMRNCPFYVS,inactive
9,VGQTCFTIMMVV,inactive
10,CMPFMR,inactive
11,FLMAINFKVQSVPQNHR,0.211 ± 0.48
12,TNMYYSRVANDGIF,inactive
13,ANLSRSSTLLSGVWSEV,inactive
14,TRVIRLGGMALSFVFTIISC,inactive
15,REGLRYLMVRSIIFSHIFCN,inactive
16,SSDSYLVRESDKSSEWGTRN,inactive
17,FYLALIYNICFADRKLVGVC,inactive
18,KDVRVWRLFRLD,inactive
19,ISQQTFNFALSMCTSPASRI,inactive
20,RFFNFPGNLKLSHVDLIAIW,0.214 ± 0.64
21,WDMWPGI,inactive
22,ILHLQSPGQATCANNKCLFP,inactive
23,SVNSVTWLFVRMQYFLFISC,inactive

row,Substance,amyloid nucleation score
1,DRIGVQ,inactive
2,DSVFCVRLAKLVGLHSSF,inactive
3,EGYQVFFNDLVLTLVMRVEV,inactive
4,LLTIKN,inactive
5,NLKLAWNRLSRMHWFLMNRS,inactive
6,SAGISYFCDILKSTYAVFAV,inactive
7,KSSSFSFVASCGHAVILQKK,inactive
8,VEPRWNRLVGNHVCSFDGNV,inactive
9,CVVDNRRCLFLYWSLVSFNW,1.18 ± 0.13
10,YSNGASLVWLVNVKK,2.19 ± 0.083
11,ALRQRNDCEPYIVRTFWVET,inactive
12,SIEMQYNDMRLR,inactive
13,FKRHMTINLQRGITLIGIDM,1.93 ± 0.062
14,TWGCYLLISNI,inactive
15,VPGYAAMSPLLCYRGIPVQG,inactive
16,WAIGQLYFMRILV,inactive
17,LMLLIFAWFQILTVRIRLFR,inactive
18,NGKLVFCWDKFIYVYRLTWW,inactive
19,NSPTYYPHSFLMTYKALSFT,inactive
20,QILFTQILLNSGEEGLSFVS,0.479 ± 0.18
21,SRYSYVYTSESLYRASVSSV,inactive
22,KQLLAKTALAYEAIRPPIPI,inactive
23,RFGFS,inactive

row,Substance,amyloid nucleation score
1,CFPCLWP,1.26 ± 0.12
2,ICTCKWRLTLEQTSFVDGLT,inactive
3,DITAG,inactive
4,FGMLFIWRK,inactive
5,GSKCWPDLQMLIFEVVHHRA,inactive
6,GFIHWRGAIWVSL,-0.65 ± 1.9
7,FVYDMHKHQIALRQVSSCEG,inactive
8,SVFKIV,inactive
9,SRYFYDADYLFGGHSVAGQI,inactive
10,FRFGSVELLEAGTIQ,0.043 ± 0.63
11,SGWTTQVRNKDGWASQLVSE,inactive
12,WGFLQLHEPS,inactive
13,AWVLCVKERFRSAGCECTGF,inactive
14,WIKGVRIRPL,inactive
15,SLVEAGMFTQFS,inactive
16,HVTPRKN,inactive
17,GFLVNSISFSKSCYEHTIVW,inactive
18,GVMDDSDIL,-0.492 ± 0.84
19,EGSDIA,inactive
20,QAQVDKCLLARFVGL,inactive
21,NFQVDNVGSYS,inactive
22,LFSMSVSASHHWLERSFLTR,inactive
23,SYRIIEWCSLGKDNLDIRTG,inactive

row,Substance,amyloid nucleation score
1,YDGRIGRYSSYIKKCF,inactive
2,RYLNVVPLLPCYMIWFPRVS,inactive
3,FGPAMCYSLIVQLTSVYRGG,1.99 ± 0.087
4,LVSVVYLEGTGGDYDFFIAT,2.01 ± 0.079
5,TNVLCRSTKNVFYTKGL,0.368 ± 0.17
6,RHLIAFVVNNSFLVDYDSIS,inactive
7,TYAIYVDSGIFLEVHGNLYM,2.64 ± 0.08
8,RFGGVLVVFGEWNDVVREAV,inactive
9,DSDKNPHGVLSSIGCMYVRS,inactive
10,RKQRNWCTTPVVRFRVYGYA,inactive
11,VDKWDCLSYSNIVGLMRLDV,inactive
12,SIIRNKFVAMNMNSVNM,0.831 ± 0.095
13,KKGGVVINVSTNRIRTLTCP,inactive
14,RSSWK,inactive
15,KEDCGGQVNKTSGASVSSLC,inactive
16,YTWLVTVTDDGCRFEFSCEF,inactive
17,YVVFYHLAVALSLKMASKRI,-0.826 ± 1.9
18,GYPVWYVDLFSAKVRMQ,inactive
19,LKSMLLFSMRSRSVKCCGGE,inactive
20,FLNKITNVSIYLIGTRETDV,2.81 ± 0.064
21,CDNWLSYMWFYGNGAAPEGR,2.06 ± 0.094
22,SCYNYCRCVCPNVEASHTSL,-0.664 ± 1.1
23,LAYYRPRQEWVPCNSVGLK,inactive

row,Substance,amyloid nucleation score
1,AKFARYSTYLPLLSVHDIND,inactive
2,EVQEKAEHHVLVGRVANPRF,inactive
3,QYVSSTFHV,inactive
4,TSCLNKKHAVGFSCVFYH,inactive
5,SICTLFACHAFAGRYTTQGG,1.04 ± 0.2
6,NNGSSRYMWSSYFLVGY,inactive
7,VRTNPGGFWLNLCQQTQKES,inactive
8,FSRYDRDLKGSLSGRSYFSA,inactive
9,KMRFLIALNVTTWGPKLLCG,inactive
10,CIREKLILIMTSRSIMLLKS,inactive
11,MSKARFRWSDNTDPFFSVGQ,0.196 ± 0.51
12,HEELQKIMIFSCMCYLQVLT,inactive
13,WGFVIIYELKNLMCVMRPPS,inactive
14,DKRDNMYICVCRYCHETWCI,-0.397 ± 0.66
15,MRFLWCNVCL,2.07 ± 0.078
16,TGFNASCCLLGSRCGAEKIL,0.604 ± 0.18
17,VSVCLVCAVIPRLLSMRCIV,inactive
18,LYLPGKIY,inactive
19,FTYTEMRLGIKFSTWRQ,1.03 ± 0.14
20,DSCQKVVWIGSGEVRKAWRY,inactive
21,NINVRTELVQRKGNILP,0.213 ± 0.17
22,LNWLITYLGKR,2.24 ± 0.092
23,LCMADYVRGTWVYVPYFWMC,inactive

row,Substance,amyloid nucleation score
1,QWWSLVTCQAMMN,inactive
2,VVKYSSRCSKVRICLSRWVW,inactive
3,HSMQCNT,inactive
4,QHYDDSNRFYNK,inactive
5,MSCICGKPTAVCI,inactive
6,FLRPV,inactive
7,MPTTHASLSSSFLG,inactive
8,GVIIRFWYWQDYAASLEYTC,inactive
9,LSESYDRQRFKSTF,0.694 ± 0.21
10,VYSLMGS,inactive
11,ATCWTLGNDVRFGMRAFTFV,inactive
12,VLCDDTCYFADVSSWSWDWF,inactive
13,THSVIFRVRYHLSYNAIRIF,inactive
14,FSLGVWSNPDWVRCSHWFIF,1.28 ± 0.14
15,MDLITFGKKMREAQARILLV,inactive
16,CQVMSNFCNGMPQTQFGVGS,inactive
17,MRSNMFSRAGNYGQSIKELT,inactive
18,RYNRDGMTYMSISFPRGPYL,1.27 ± 0.12
19,FSITSADGCCSHLLRMYTNG,inactive
20,FICHYEHKKVRHRVYAKAYI,inactive
